Experimental data: patent US8586538B2, “Method of treating a patient suffering from a bleeding disorder comprising administering an antibody against the A3-C1 of FVIII” (Stichting Sanquin Bloedvoorziening, priority 2002, dated 2013)

Molecular target: T1, interaction between FVIII light chain and LRP cluster II (Homo sapiens, UniProt P00451)
T1 construct: Recombinant LRP clusters II or IV (1 pmol/well) were adsorbed onto microtiter wells; made in house; host or cells: LRP cluster II: BHK cells; FVIII light chain: plasma-derived
T1 sequence (P00451 1668-2351): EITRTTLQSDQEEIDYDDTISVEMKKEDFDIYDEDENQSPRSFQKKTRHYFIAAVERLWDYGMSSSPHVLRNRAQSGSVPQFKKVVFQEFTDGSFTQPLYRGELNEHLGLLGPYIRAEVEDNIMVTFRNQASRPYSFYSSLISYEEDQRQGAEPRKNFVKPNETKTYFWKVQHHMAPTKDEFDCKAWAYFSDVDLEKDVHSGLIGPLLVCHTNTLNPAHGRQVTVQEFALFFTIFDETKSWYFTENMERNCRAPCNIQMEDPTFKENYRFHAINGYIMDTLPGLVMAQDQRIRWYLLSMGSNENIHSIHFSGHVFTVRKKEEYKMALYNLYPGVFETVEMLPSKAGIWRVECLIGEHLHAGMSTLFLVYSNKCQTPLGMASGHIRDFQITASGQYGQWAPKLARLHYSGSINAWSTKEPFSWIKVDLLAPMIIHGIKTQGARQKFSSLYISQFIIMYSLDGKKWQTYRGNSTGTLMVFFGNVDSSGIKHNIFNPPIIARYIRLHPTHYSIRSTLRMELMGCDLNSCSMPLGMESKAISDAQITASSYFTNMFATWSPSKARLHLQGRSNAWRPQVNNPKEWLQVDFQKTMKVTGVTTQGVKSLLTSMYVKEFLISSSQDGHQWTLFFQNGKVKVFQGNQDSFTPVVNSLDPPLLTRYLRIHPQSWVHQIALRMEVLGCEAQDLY
Assay: Solid-phase competition: FVIII light chain binding to immobilized LRP cluster II
Conditions: FVIII light chain 25 nM
Method: FIG. 4. Effect of scFv antibody fragments on the interaction between FVIII light chain and LRP. A, FVIII light chain (LCh) (25 nM) was incubated with immobilized LRP cluster II (1 pmol/well) in a volume of 50 μl in 150 mM NaCl, 5 mM CaCl2, 1% (w/v) HSA, 0.1% Tween® 20, and 50 mM Tris (pH 7.4) in the presence of various concentrations (0-100 nM) of scFv KM41 (closed circles) or scFv KM36 (open circles) for 2 h at 37° C. After washing with the same buffer, bound FVIII light chain was quantified by incubation with peroxidase-conjugated anti-FVIII antibody CLB-CAg 12 for 15 min at 37° C. Residual binding is expressed as the percentage of binding in the absence of competitor and is corrected for nonspecific binding (less than 5% relative to binding to LRP cluster II-immobilized wells). Data represent the mean±S.D. of three experiments. B, FVIII light chain (50 nM) was incubated with immobilized LRP (16 fmol/mm^2) as described in the legend of FIG. 1. Binding was assessed in the absence (curve 1) or in the presence of increasing concentrations of scFv KM41 (20, 60, 300, 500 nM, curves 2-5, respectively). Complexes were allowed to form for 30 min before SPR analysis.
FIG. 5. Effect of scFv KM33 on the interaction between FVIII light chain and LRP. FVIII light chain (LCh) (25 nM) was incubated with immobilized LRP cluster II (1 pmol/well) in a volume of 50 μl in 150 mM NaCl, 5 mM CaCl2, 1% (w/v) HSA, 0.1% Tween® 20, and 50 mM Tris (pH 7.4) in the presence of various concentrations (0-30 nM) of scFv KM36 (open circles) or scFv KM33 (closed circles) for 2 h at 37° C. After washing with the same buffer, bound FVIII Light chain was quantified by incubation with peroxidase-conjugated anti-FVIII antibody CLB-CAg 12 for 15 min at 37° C. Residual binding is expressed as the percentage of binding in the absence of competitor and is corrected for nonspecific binding (less than 5% relative to binding to cluster-coated wells). Data represent the mean±S.D. of three experiments.
Recombinant LRP clusters II or IV (1 pmol/well) were adsorbed onto microtiter wells in 50 mM NaHCO3 (pH 9.8) in a volume of 50 μl for 16 h at 4° C. Wells were blocked with 2% (w/v) HSA, 150 mM NaCl, 5 mM CaCl2, and 50 mM Tris (pH 7.4) in a volume of 200 μl for 1 h at 37° C. After three rapid washes (less than 5 seconds each) with 150 mM NaCl, 5 mM CaCl2, 0.1% (v/v) Tween® 20, and 50 mM Tris (pH 7.4), FVIII light chain or its derivatives were incubated at various concentrations in a volume of 50 μl in a buffer containing 150 mM NaCl, 5 mM CaCl2, 1% (w/v) HSA, 0.1% (v/v) Tween® 20, and 50 mM Tris (pH 7.4) for 2 h. at 37° C. Bound ligand was detected by incubating with peroxidase-conjugated monoclonal antibody CLB-CAg 12 in the same buffer for 15 min at 37° C. […] In competition experiments, FVIII light chain (25 nM) was incubated with wells containing immobilized LRP clusters, either in the presence or absence of serial dilutions of competitor in a volume of 50 μl for 2 h at 37° C. Residual FVIII binding was detected as described above. Data were corrected for binding to empty microtiter wells, which was less than 5% relative to binding to wells containing immobilized LRP clusters.
(Note to Table II: Effect of FVIII a3-A3-C1 fragment derived synthetic peptides on the interaction between FVIII light chain and LRP cluster II. FVIII light chain (25 nM) was incubated with immobilized LRP cluster II (1 pmol/well) in a volume of 50 μl in 150 mM NaCl, 5 mM CaCl2, 1% (w/v) HSA, 0.1% Tween® 20, and 50 mM Tris (pH 7.4) in the presence or absence of various concentrations of synthetic peptide (0-1 mM) for 2 h at 37° C. After washing with the same buffer, bound FVIII light chain was quantified by incubation with peroxidase-conjugated anti-FVIII antibody CLB-CAg 12 for 15 min at 37° C. Half-maximum inhibition constants (IC50) represent the mean values±S.D. of three experiments.)

Effect on binding of FVIII light chain to immobilized LRP cluster II: inhibited the binding
B1: scFv KM41: scFv antibody fragment directed against FVIII region Arg^1803-Lys^1818 (protein)
scFv: QVQLLQSAADVKKPGASVKVSCTASGYIFTSYDIDWVRQATGQGLEWMGWMNPNSGNAGFAQKFKGRLTLTRDTSTSTAYMELRRLESEDTAVYYCARSTPHSYSGSGLPPTSDSWGQGTLVTVSSGGGGSGGGGSGGGGSEIVLTQSPGTLSLSPGERATLSCRASQSVSSSFLGWYQQKPGQAPRLLIYGASSRATGIPDRFSGSGSGTDFTLTISRLEPEDFAVYYCQQYGISPLTFGGGTKLEIKRAAAEQKLISEEDLNGAAHHHHHH
